Laboratory results published in publication PMC4942255, “MutSα maintains the mismatch repair capability by inhibiting PCNA unloading”.

Tests used:
Experiment in all cases: SPR; no nucleotide or Mg2+ listed in running buffer; n = 2; SPR (BIACORE 3000): 20 mM Hepes-NaOH pH 7.5, 100 mM NaCl, 1 mM DTT, 0.005% Tween-20; 20 μl/min, 3 min association and 3 min dissociation; temperature not stated
Conditions in all cases: protein: recombinant; tags: C-terminal FLAG on xMsh6; copies: 1;1; label: 3' biotin on strand 1; blunt, A:C mismatch (A at strand 1 position 22, C in strand 2)
[1] = molecular target: xMutSα WT (xMsh2-xMsh6-FLAG) (Xenopus laevis, UniProt A0A1B4WRB1;A0A1B4WRB2 1-932;1-1340)
xMutSα WT (xMsh2-xMsh6-FLAG), sequence (chain, as listed by the source, chain 1 of 2): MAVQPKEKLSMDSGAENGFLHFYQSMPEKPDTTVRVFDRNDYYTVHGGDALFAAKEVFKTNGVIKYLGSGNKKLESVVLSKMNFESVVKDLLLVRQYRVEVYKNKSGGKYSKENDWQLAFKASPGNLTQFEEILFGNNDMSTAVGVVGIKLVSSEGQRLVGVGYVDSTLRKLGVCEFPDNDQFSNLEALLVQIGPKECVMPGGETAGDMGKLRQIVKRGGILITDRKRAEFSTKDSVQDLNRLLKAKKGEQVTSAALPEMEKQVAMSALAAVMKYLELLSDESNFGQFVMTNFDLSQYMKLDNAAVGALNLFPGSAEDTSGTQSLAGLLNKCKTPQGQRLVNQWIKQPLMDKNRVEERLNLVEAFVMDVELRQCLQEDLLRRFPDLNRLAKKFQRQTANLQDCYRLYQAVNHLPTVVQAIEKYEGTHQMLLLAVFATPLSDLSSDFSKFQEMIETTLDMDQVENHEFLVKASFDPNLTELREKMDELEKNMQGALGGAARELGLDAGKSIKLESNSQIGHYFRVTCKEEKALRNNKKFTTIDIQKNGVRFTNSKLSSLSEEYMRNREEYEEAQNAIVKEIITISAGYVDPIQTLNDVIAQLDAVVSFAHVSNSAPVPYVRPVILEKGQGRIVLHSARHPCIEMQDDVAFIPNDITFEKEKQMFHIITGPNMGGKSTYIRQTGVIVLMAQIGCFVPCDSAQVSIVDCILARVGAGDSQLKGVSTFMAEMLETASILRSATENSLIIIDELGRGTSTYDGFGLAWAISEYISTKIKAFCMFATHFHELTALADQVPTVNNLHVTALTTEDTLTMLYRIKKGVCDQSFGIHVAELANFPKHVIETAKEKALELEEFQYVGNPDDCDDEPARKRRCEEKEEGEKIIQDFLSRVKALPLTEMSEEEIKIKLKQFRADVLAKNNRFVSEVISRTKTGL
xMutSα WT (xMsh2-xMsh6-FLAG), sequence (chain, as listed by the source, chain 2 of 2): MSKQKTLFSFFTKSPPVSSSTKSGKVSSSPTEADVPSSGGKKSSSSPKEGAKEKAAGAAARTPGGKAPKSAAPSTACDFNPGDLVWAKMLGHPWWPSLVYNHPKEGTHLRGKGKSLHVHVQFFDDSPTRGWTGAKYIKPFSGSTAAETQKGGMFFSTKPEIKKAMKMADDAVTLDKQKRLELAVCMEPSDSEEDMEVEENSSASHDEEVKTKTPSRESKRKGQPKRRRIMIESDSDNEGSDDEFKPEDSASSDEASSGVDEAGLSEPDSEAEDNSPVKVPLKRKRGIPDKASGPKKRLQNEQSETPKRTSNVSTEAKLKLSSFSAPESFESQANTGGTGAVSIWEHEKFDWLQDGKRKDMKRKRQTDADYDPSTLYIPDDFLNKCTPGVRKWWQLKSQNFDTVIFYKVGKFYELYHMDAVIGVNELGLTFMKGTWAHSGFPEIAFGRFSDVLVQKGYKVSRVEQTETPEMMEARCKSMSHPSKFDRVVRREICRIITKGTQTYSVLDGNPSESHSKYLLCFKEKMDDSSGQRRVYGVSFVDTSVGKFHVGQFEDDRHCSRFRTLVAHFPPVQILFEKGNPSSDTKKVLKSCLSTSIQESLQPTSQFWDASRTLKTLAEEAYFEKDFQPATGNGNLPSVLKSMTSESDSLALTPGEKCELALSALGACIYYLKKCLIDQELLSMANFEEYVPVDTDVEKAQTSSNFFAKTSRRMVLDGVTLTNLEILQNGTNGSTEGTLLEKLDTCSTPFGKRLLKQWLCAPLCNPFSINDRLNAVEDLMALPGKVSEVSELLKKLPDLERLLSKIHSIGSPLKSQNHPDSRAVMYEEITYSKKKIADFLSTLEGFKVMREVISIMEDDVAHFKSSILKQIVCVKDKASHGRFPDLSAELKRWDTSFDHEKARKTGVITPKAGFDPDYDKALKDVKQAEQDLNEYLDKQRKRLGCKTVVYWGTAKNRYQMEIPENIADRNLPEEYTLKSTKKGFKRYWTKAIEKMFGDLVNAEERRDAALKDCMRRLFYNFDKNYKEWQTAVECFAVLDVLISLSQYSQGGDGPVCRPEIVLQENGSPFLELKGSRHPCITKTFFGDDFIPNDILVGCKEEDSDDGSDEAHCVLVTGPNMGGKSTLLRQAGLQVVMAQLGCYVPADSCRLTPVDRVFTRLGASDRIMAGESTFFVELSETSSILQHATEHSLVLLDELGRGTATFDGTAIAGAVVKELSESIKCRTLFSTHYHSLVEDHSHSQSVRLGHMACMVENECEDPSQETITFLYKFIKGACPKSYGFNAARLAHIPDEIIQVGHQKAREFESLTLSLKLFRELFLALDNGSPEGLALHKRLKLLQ

[2] = molecular target: xMutSα PIP (xMsh2-xMsh6PIP-FLAG) (Xenopus laevis, UniProt A0A1B4WRB1;A0A1B4WRB2 1-932;1-1340, Q4A;F10A;F11A)
xMutSα PIP (xMsh2-xMsh6PIP-FLAG), sequence (chain, as listed by the source Q4A;F10A;F11A, chain 1 of 2): as the sequence (chain, as listed by the source, chain 1 of 2) above
xMutSα PIP (xMsh2-xMsh6PIP-FLAG), sequence (chain, as listed by the source Q4A;F10A;F11A, chain 2 of 2): as the sequence (chain, as listed by the source, chain 2 of 2) above, with Q4A, F10A, F11A counted along it

[3] = molecular target: xMutSα ΔN (xMsh2-xMsh6ΔN-FLAG) (Xenopus laevis, UniProt A0A1B4WRB1;A0A1B4WRB2 1-932;=M+324-1340, internal_change)

B1: 42 bp A:C mismatch oligo DNA (dsDNA)
DNA 1: GGGTGACCGTACTGCATCTCGAGATCCATGTTACTGCGTCAG
DNA 2: CTGACGCAGTAACATGGATCCCGAGATGCAGTACGGTCACCC
[1]
  Kd: 2.2 nM
[2]
  Kd: 4.4 nM
[3]
  Kd: 3.6 nM
